From IntAct's records for PubMed 18278056

B1: Insulin receptor substrate 2 (Mus musculus), P81122 (parent)
chain: MASAPLPGPPASAGGDGPNLNNNNNNNNHSVRKCGYLRKQKHGHKRFFVLRGPGTGGDEASAAGGSPPQPPRLEYYESEKKWRSKAGAPKRVIALDCCLNINKRADAKHKYLIALYTKDEYFAVAAENEQEQEGWYRALTDLVSEGRSGEGGSGTTGGSCSASLPGVLGGSAGAAGCDDNYGLVTPATAVYREVWQVNLKPKGLGQSKNLTGVYRLCLSARTIGFVKLNCEQPSVTLQLMNIRRCGHSDSFFFIEVGRSAVTGPGELWMQADDSVVAQNIHETILEAMKALKELFEFRPRSKSQSSGSSATHPISVPGARRHHHLVNLPPSQTGLVRRSRTDSLAATPPAAKCTSCRVRTASEGDGGAAGGAGTAGGRPMSVAGSPLSPGPVRAPLSRSHTLSAGCGGRPSKVTLAPAGGALQHSRSMSMPVAHSPPAATSPGSLSSSSGHGSGSYPLPPGSHPHLPHPLHHPQGQRPSSGSASASGSPSDPGFMSLDEYGSSPGDLRAFSSHRSNTPESIAETPPARDGSGGELYGYMSMDRPLSHCGRPYRRVSGDGAQDLDRGLRKRTYSLTTPARQRQVPQPSSASLDEYTLMRATFSGSSGRLCPSFPASSPKVAYNPYPEDYGDIEIGSHKSSSSNLGADDGYMPMTPGAALRSGGPNSCKSDDYMPMSPTSVSAPKQILQPRLAAALPPSGAAVPAPPSGVGRTFPVNGGGYKASSPAESSPEDSGYMRMWCGSKLSMENPDPKLLPNGDYLNMSPSEAGTAGTPPDFSAALRGGSEGLKGIPGHCYSSLPRSYKAPCSCSGDNDQYVLMSSPVGRILEEERLEPQATPGAGTFGAAGGSHTQPHHSAVPSSMRPSAIGGRPEGFLGQRCRAVRPTRLSLEGLQTLPSMQEYPLPTEPKSPGEYINIDFGEAGTRLSPPAPPLLASAASSSSLLSASSPASSLGSGTPGTSSDSRQRSPLSDYMNLDFSSPKSPKPSTRSGDTVGSMDGLLSPEASSPYPPLPPRPSTSPSSLQQPLPPAPGDLYRLPPASAATSQGPTAGSSMSSEPGDNGDYTEMAFGVAATPPQPIVAPPKPEGARVASPTSGLKRLSLMDQVSGVEAFLQVSQPPDPHRGAKVIRADPQGGRRRHSSETFSSTTTVTPVSPSFAHNSKRHNSASVENVSLRKSSEGSSTLGGGDEPPTSPGQAQPLVAVPPVPQARPWNPGQPGALIGCPGGSSSPMRRETSVGFQNGLNYIAIDVRGEQGSLAQSQPQPGDKNSWSRTRSLGGLLGTVGGSGASGVCGGPGTGALPSASTYASIDFLSHHLKEATVVKE

Variants of: B1
Conditions: with INSR

Row | Variant | effect of a mutation on the interaction
1 | Y621A | disrupting interaction
2 | Y628F | disrupting interaction
3 | Y624A | disrupting interaction
4 | D627A | disrupting interaction

The next lines start with the values.

Row | effect of a mutation on the interaction | Variant
5 | disrupting interaction | I631A
6 | disrupting interaction | G629A
7 | disrupting interaction | I633A

Variants of: B1
Conditions: with igf1r_human IGF1R

Row | effect of a mutation on the interaction | Variant
8 | disrupting interaction | Y628F
